Key:
[1] = molecular target: extracellular part of human CD40L (aa 108-261 recombinantly produced in E. coli) (human) (UniProt P29965); assay: BLI (OctetRED96), Fab captured on anti-human Fab-CH1 (FAB2G) sensors, soluble CD40L 2.5-80 nM, 1:1 global fit; purchased
IL-1β = assay: cell-based or functional assay

Sequence of extracellular part of human CD40L (aa 108-261 recombinantly produced in E. coli) (human) (P29965 108-261 limits assumed): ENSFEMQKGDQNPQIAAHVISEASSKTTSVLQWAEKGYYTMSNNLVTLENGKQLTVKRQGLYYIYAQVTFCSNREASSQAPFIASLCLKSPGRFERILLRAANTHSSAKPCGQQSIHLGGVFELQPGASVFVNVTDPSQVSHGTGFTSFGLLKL

Which Kd [1] does the source give for Dapirolizumab Fab here?
Its Kd is under 0.3 nM.

Which NHDF IC50 (pM); inhibition of IL-1β induced IL-6 release from NHDF cells (IL-1β) does the source give for “Met-huIL-1Ra (Anakinra) (from UniProt P18510 26-177) (ligand)” here?
Its NHDF IC50 (pM); inhibition of IL-1β induced IL-6 release from NHDF cells is 70 pM.

For “PEG(L30kDa)-Met-huIL-1Ra (from UniProt P18510 26-177) (ligand)”, which NHDF IC50 (pM); inhibition of IL-1β induced IL-6 release from NHDF cells (IL-1β) is on record?
Its NHDF IC50 (pM); inhibition of IL-1β induced IL-6 release from NHDF cells is 900 pM.

— patent publication US20210284690A1
